# PMC4963854 (2016)
# Assays:
# Fluo-Ia = Fluo-Ia (Streptococcus pyogenes); experiment: fluorescence polarization
# Fluo-IIa = Fluo-IIa (Streptococcus pyogenes); experiment: fluorescence polarization
binder,measurement,setting,value
Epsilon antitoxin (protein) AVTYEKTFEIEIINELSASVYNRVLNYVLNHELNKNDSQLLEVNLLNQLKLAKRVNLFDYSLEELQAVHEYWRSMNRYSKQVLNKEKVA,Kd,Fluo-Ia,74.5 nM
same,Kd,Fluo-IIa,170 nM
